In patent US20250215403A1, “Compositions and Methods for Cardiac Tissue Regeneration” (Temple University - Of The Commonwealth System Of Higher …, priority 2022, published 2025):

Test system: NRVM (neonatal rat ventricular CMs)
Experiment: NRVM transfection (modRNA, siRNA, PH755): CM cell cycle markers and CM number
Assay type: cell-based
Procedure: In vivo transfection of modRNA was done as described previously in a recent method paper (Magadum A., et al., Circulation. 2020, 141 (15): 1249-1265; Sultana N., et al., Mol Ther, 2017, 25 (6): 1306-1315) using sucrose citrate buffer containing 10 μl of sucrose in nuclease-free water (0.3 g/ml), 10 μl of citrate (0.1M pH-7; Sigma) mixed with 10 μl of different concentrations of modRNA in saline to a total volume of 30 μl. Immediately after LAD ligation, mice received an intra-myocardial injection of modRNA (100 μg) in total volume of 30 μL at 3 different sites (mid-anterior×2 places and apical anterior) in the peri-infarct area (Magadum A., et al., Circulation. 2020, 141 (15): 1249-1265; Magadum, A., et al., 2021, Advanced Science, 9:2004661). For in vitro transfection, RNAiMAX transfection reagent (Life Technologies) was used according to manufacturer's recommendation (Magadum A., et al., Circulation. 2020, 141 (15): 1249-1265; Sultana N., et al., Mol Ther, 2017, 25 (6): 1306-1315).
Mice hearts were harvested, weighed, and fixed in 4% PFA/PBS overnight on shaker and then washed with PBS for 1 hour and incubated in 30% sucrose/PBS at 4° C. for 12-18 hours. Hearts were then fixed in OCT and frozen at −80° C. (Magadum A., et al., Circulation. 2020, 141 (15): 1249-1265). Transverse heart sections (6-8 μm) were made using a cryostat. Frozen sections were rehydrated in PBS for 5-10 min followed by permeabilization with PBS with 0.1% Triton™ X100 (PBST) for 7-8 min. Heart sections were then treated with 3% H2O2 for 5 min and washed (3×5 min) with PBST. The samples were then blocked with PBS+10% Donkey normal serum+0.1% Triton™ X100 (PBSST) for 1 hour at room temperature. Primary antibodies (see complete list of primary antibodies used for this Example in Table 2 below) diluted in PBST were added and incubated overnight at 4° C. Slides were washed with PBST (3×5 min) followed by incubation with a secondary antibody (Invitrogen, 1:200) diluted in PBST for 90-120 min at room temperature. The samples were further washed with PBST (3×5 min) and stained with DAPI or Hoechst 33342 (1 μg/ml) diluted in PBST for 7 min. […] For immunostaining with wheat germ agglutinin (WGA) for CM size quantification, images were captured at 40× magnification, and ImageJ was used to determine the area of each cell. Quantitative analyses involved counting of multiple fields from 5-8 mouse hearts per group, and 3-4 sections/heart (˜50 cells per field assessed, for a total ˜250 cells per sample). […] BrdU positive CMs were counted in multiple fields from three independent samples per group and 3 sections/heart. The total number of CMs counted was ˜1-1.5×10^3 CMs per section. […]

B1: PSAT1 modRNA: modified mRNA with N1-methylpseudouridine, transcribed in vitro, encoding phosphoserine aminotransferase 1 (ORF SEQ ID NO: 1, RNA SEQ ID NO: 2) (nucleic acid)
chain: AUGGAAGCCACCAAGCAAGUGGUUAACUUUGGGCCCGGGCCUGCCAAGCUGCCACACUCGGUAUUGUUGGAGAUCCAGAAGCAGCUACUAGACUACAGAGGACUCGGCAUCAGUGUGCUCGAAAUGAGUCACAGGUCAUCAGAUUUUGCCAAGAUUAUUGGCAAUACAGAGAAUCUUGUGAGGGAAUUGCUAGCUGUUCCCAACAACUACAAGGUGAUCUUUGUACAAGGAGGUGGGUCUGGCCAGUUCAGUGCUGUCCCCUUAAAUCUGAUUGGCCUGAAAGCUGGAAGGAGUGCUGACUACGUGGUGACCGGAGCUUGGUCAGCUAAGGCUGCGGAAGAAGCCAAGAAGUUUGGAACGGUGAACAUUGUCCACCCUAAACUUGGAAGUUACACAAAAAUUCCAGACCCAAGCACCUGGAACCUCAACCCGGACGCCUCCUAUGUAUACUUCUGUGCAAACGAGACUGUGCACGGGGUGGAGUUUGACUUCGUACCUGACGUCAAGGGAGCGGUGCUGGUCUGUGACAUGUCCUCAAACUUCUUAUCCAGGCCGGUGGAUGUUUCCAAGUUUGGUGUGAUUUUCGCUGGUGCUCAGAAGAAUGUUGGCUCUGCCGGGGUGACGGUGGUGAUUGUCCGGGAUGACCUGCUGGGGUUCUCGCUCAGAGAGUGCCCAUCAGUCCUUGACUACAAAGUGCAGGCUGGGAACAACUCUUUGUAUAACACACCUCCGUGCUUCAGCAUCUACGUCAUGGGCAUGGUCCUGGAAUGGAUCAAGAACAACGGCGGGGCCGCAGCCAUGGAGAAGCUCAGCUCCAUCAAAUCCCAAAUGAUUUAUGAGAUCAUUGAUAAUUCUCAAGGAUUUUAUGUAUGCCCAGUGGAGCGCCAGAAUAGAAGCAGGAUGAACAUCCCAUUUCGCAUUGGCAACGCCAAAGGAGACGAAGCUUUGGAAAAGCGGUUUCUUGACAAGGCGGUAGAACUCAACAUGAUCUCCUUGAAGGGGCACAGGUCAGUGGGAGGCAUUCGUGCCUCUCUGUAUAACGCUGUCACAACCGAAGACGUUGAGAAGCUGGCGGCCUUCAUGAAGAAUUUCUUGGAGAUGCAUCAGCUGUGA
modifications: N1-methylpseudouridine
- CM mitosis (pH3+) (NRVM, after 3 days, vs Luc modRNA): significantly induced
- CM number (NRVM, in 5 days, vs Luc modRNA): increased
- CM cell cycle restriction under SSP inhibition (NRVM, PSAT1 modRNA plus PH755 10 μM, compared to control, significantly lower rate than PSAT1 modRNA alone): partially reversed
- dedifferentiation of CMs (post-PSAT1 modRNA expression): Increased
